According to US20220048962:

Test system: MBP-CIRTS-1 (ORF5-TBP6.7-SMG6 Pin nuclease fusion) (synthetic fusion (Grapevine virus A ORF5; Homo sapiens U1A-derived TBP6.7; Homo sapiens SMG6))
Experiment: FP filter
Conditions: apparent; text states ~50-fold weaker than on-target

Which Kd does the source give for “non-targeting TAR-hairpin gRNA ; model RNA substrate (R1)” here?
Its Kd is 500 nM.
